Molecular target: T1, soluble human GPC3 (human, UniProt P51654 25-563, limits assumed)
T1 construct: soluble human GPC3 as analyte; also called glypican 3
Assay: SPR (Biacore), soluble human GPC3

T1 sequence (P51654 other isoform, or with tags, fused parts or gaps limits assumed, form in doubt): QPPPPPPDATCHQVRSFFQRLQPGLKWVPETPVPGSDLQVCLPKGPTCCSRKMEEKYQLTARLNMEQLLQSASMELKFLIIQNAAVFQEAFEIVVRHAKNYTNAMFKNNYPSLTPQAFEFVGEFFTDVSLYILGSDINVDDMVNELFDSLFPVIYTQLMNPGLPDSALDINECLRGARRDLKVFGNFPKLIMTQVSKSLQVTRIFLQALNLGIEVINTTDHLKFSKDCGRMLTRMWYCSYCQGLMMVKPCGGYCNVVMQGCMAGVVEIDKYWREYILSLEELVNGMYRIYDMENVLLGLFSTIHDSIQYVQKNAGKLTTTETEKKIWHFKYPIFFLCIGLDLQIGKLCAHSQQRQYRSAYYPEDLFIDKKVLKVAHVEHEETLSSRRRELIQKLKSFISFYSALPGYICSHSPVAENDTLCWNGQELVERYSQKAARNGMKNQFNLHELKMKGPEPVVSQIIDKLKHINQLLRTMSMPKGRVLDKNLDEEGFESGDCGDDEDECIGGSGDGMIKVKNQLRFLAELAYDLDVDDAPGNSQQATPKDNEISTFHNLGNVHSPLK

Binder	Kd
H0610-G1dh/none-Hi-Kn010G3/L0152-k0 (antibody, human IgG1, kappa, single-arm (one Fab)) heavy: not shown EPKSSDKTHTCPPCPAPELLGGPSVFLFPPKPKDTLMISRTPEVTCVVVDVSHEDPEVKFNWYVDGVEVHNAKTKPREEQYNSTYRVVSVLTVLHQDWLNGKEYKCKVSNKALPAPIEKTISKAKGQPREPQVCTLPPSRDELTKNQVSLWCLVKGFYPSDIAVEWESNGQPENNYKTTPPVLDSDGSFFLYSKLTVDKSRWQQGNVFSCSVMHEALHNRYTQKSLSLSP light: DIVMTQSPLSLPVTPGEPASISCRSSQSLVHSNRNTYLHWYQQKPGQAPRLLIYKVSNRFSGVPDRFSGSGSGTDFTLKISRVEAEDVGVYYCFQGTQVPYTFGQGTKLEIKRTVAAPSVFIFPPSDEQLKSGTASVVCLLNNFYPREAKVQWKVDNALQSGNSQESVTEQDSKDSTYSLSSTLTLSKADYEKHKVYACEVTHQGLSSPVTKSFNRGEC	2.36 nM
H0610-G1dh/none-Hi-Kn010G3/L0168-k0 (antibody, human IgG1, kappa, single-arm (one Fab)) heavy: not shown EPKSSDKTHTCPPCPAPELLGGPSVFLFPPKPKDTLMISRTPEVTCVVVDVSHEDPEVKFNWYVDGVEVHNAKTKPREEQYNSTYRVVSVLTVLHQDWLNGKEYKCKVSNKALPAPIEKTISKAKGQPREPQVCTLPPSRDELTKNQVSLWCLVKGFYPSDIAVEWESNGQPENNYKTTPPVLDSDGSFFLYSKLTVDKSRWQQGNVFSCSVMHEALHNRYTQKSLSLSP light: DIVMTQSPLSLPVTPGEPASISCRSSQSLVHSNRNTYLHWYQQKPGQAPRLLIYKVSNRFSGVPDRFSGSGSGTDFTLKISRVEAEDVGVYYCGQTTQVPYTFGQGTKLEIKRTVAAPSVFIFPPSDEQLKSGTASVVCLLNNFYPREAKVQWKVDNALQSGNSQESVTEQDSKDSTYSLSSTLTLSKADYEKHKVYACEVTHQGLSSPVTKSFNRGEC	0.699 nM
H0610-G1dh/none-Hi-Kn010G3/L0163-k0 (antibody, human IgG1, kappa, single-arm (one Fab)) heavy: not shown EPKSSDKTHTCPPCPAPELLGGPSVFLFPPKPKDTLMISRTPEVTCVVVDVSHEDPEVKFNWYVDGVEVHNAKTKPREEQYNSTYRVVSVLTVLHQDWLNGKEYKCKVSNKALPAPIEKTISKAKGQPREPQVCTLPPSRDELTKNQVSLWCLVKGFYPSDIAVEWESNGQPENNYKTTPPVLDSDGSFFLYSKLTVDKSRWQQGNVFSCSVMHEALHNRYTQKSLSLSP light: DIVMTQSPLSLPVTPGEPASISCRSSQSLVHSNRNTYLHWYQQKPGQAPRLLIYKVSNRFSGVPDRFSGSGSGTDFTLKISRVEAEDVGVYYCYQGTQVPYTFGQGTKLEIKRTVAAPSVFIFPPSDEQLKSGTASVVCLLNNFYPREAKVQWKVDNALQSGNSQESVTEQDSKDSTYSLSSTLTLSKADYEKHKVYACEVTHQGLSSPVTKSFNRGEC	3.38 nM
H0610-G1dh/none-Hi-Kn010G3/L0167-k0 (antibody, human IgG1, kappa, single-arm (one Fab)) heavy: not shown EPKSSDKTHTCPPCPAPELLGGPSVFLFPPKPKDTLMISRTPEVTCVVVDVSHEDPEVKFNWYVDGVEVHNAKTKPREEQYNSTYRVVSVLTVLHQDWLNGKEYKCKVSNKALPAPIEKTISKAKGQPREPQVCTLPPSRDELTKNQVSLWCLVKGFYPSDIAVEWESNGQPENNYKTTPPVLDSDGSFFLYSKLTVDKSRWQQGNVFSCSVMHEALHNRYTQKSLSLSP light: DIVMTQSPLSLPVTPGEPASISCRSSQSLVHSNRNTYLHWYQQKPGQAPRLLIYKVSNRFSGVPDRFSGSGSGTDFTLKISRVEAEDVGVYYCGQSTQVPYTFGQGTKLEIKRTVAAPSVFIFPPSDEQLKSGTASVVCLLNNFYPREAKVQWKVDNALQSGNSQESVTEQDSKDSTYSLSSTLTLSKADYEKHKVYACEVTHQGLSSPVTKSFNRGEC	0.211 nM
H0610-G1dh/none-Hi-Kn010G3/L0160-k0 (antibody, human IgG1, kappa, single-arm (one Fab)) heavy: not shown EPKSSDKTHTCPPCPAPELLGGPSVFLFPPKPKDTLMISRTPEVTCVVVDVSHEDPEVKFNWYVDGVEVHNAKTKPREEQYNSTYRVVSVLTVLHQDWLNGKEYKCKVSNKALPAPIEKTISKAKGQPREPQVCTLPPSRDELTKNQVSLWCLVKGFYPSDIAVEWESNGQPENNYKTTPPVLDSDGSFFLYSKLTVDKSRWQQGNVFSCSVMHEALHNRYTQKSLSLSP light: DIVMTQSPLSLPVTPGEPASISCRSSQSLVHSNRNTYLHWYQQKPGQAPRLLIYKVSNRFSGVPDRFSGSGSGTDFTLKISRVEAEDVGVYYCTQGTQVPYTFGQGTKLEIKRTVAAPSVFIFPPSDEQLKSGTASVVCLLNNFYPREAKVQWKVDNALQSGNSQESVTEQDSKDSTYSLSSTLTLSKADYEKHKVYACEVTHQGLSSPVTKSFNRGEC	2.12 nM
H0610-G1dh/none-Hi-Kn010G3/L0186-k0 (antibody, human IgG1, kappa, single-arm (one Fab)) heavy: not shown EPKSSDKTHTCPPCPAPELLGGPSVFLFPPKPKDTLMISRTPEVTCVVVDVSHEDPEVKFNWYVDGVEVHNAKTKPREEQYNSTYRVVSVLTVLHQDWLNGKEYKCKVSNKALPAPIEKTISKAKGQPREPQVCTLPPSRDELTKNQVSLWCLVKGFYPSDIAVEWESNGQPENNYKTTPPVLDSDGSFFLYSKLTVDKSRWQQGNVFSCSVMHEALHNRYTQKSLSLSP light: DIVMTQSPLSLPVTPGEPASISCRSSQSLVHSNRNTYLHWYQQKPGQAPRLLIYKVSNRFSGVPDRFSGSGSGTDFTLKISRVEAEDVGVYYCGQGTQWPYTFGQGTKLEIKRTVAAPSVFIFPPSDEQLKSGTASVVCLLNNFYPREAKVQWKVDNALQSGNSQESVTEQDSKDSTYSLSSTLTLSKADYEKHKVYACEVTHQGLSSPVTKSFNRGEC	1.08 nM
H0610-G1dh/none-Hi-Kn010G3/L0157-k0 (antibody, human IgG1, kappa, single-arm (one Fab)) heavy: not shown EPKSSDKTHTCPPCPAPELLGGPSVFLFPPKPKDTLMISRTPEVTCVVVDVSHEDPEVKFNWYVDGVEVHNAKTKPREEQYNSTYRVVSVLTVLHQDWLNGKEYKCKVSNKALPAPIEKTISKAKGQPREPQVCTLPPSRDELTKNQVSLWCLVKGFYPSDIAVEWESNGQPENNYKTTPPVLDSDGSFFLYSKLTVDKSRWQQGNVFSCSVMHEALHNRYTQKSLSLSP light: DIVMTQSPLSLPVTPGEPASISCRSSQSLVHSNRNTYLHWYQQKPGQAPRLLIYKVSNRFSGVPDRFSGSGSGTDFTLKISRVEAEDVGVYYCNQGTQVPYTFGQGTKLEIKRTVAAPSVFIFPPSDEQLKSGTASVVCLLNNFYPREAKVQWKVDNALQSGNSQESVTEQDSKDSTYSLSSTLTLSKADYEKHKVYACEVTHQGLSSPVTKSFNRGEC	2.6 nM
H0610-G1dh/none-Hi-Kn010G3/L0173-k0 (antibody, human IgG1, kappa, single-arm (one Fab)) heavy: not shown EPKSSDKTHTCPPCPAPELLGGPSVFLFPPKPKDTLMISRTPEVTCVVVDVSHEDPEVKFNWYVDGVEVHNAKTKPREEQYNSTYRVVSVLTVLHQDWLNGKEYKCKVSNKALPAPIEKTISKAKGQPREPQVCTLPPSRDELTKNQVSLWCLVKGFYPSDIAVEWESNGQPENNYKTTPPVLDSDGSFFLYSKLTVDKSRWQQGNVFSCSVMHEALHNRYTQKSLSLSP light: DIVMTQSPLSLPVTPGEPASISCRSSQSLVHSNRNTYLHWYQQKPGQAPRLLIYKVSNRFSGVPDRFSGSGSGTDFTLKISRVEAEDVGVYYCGQGTQFPYTFGQGTKLEIKRTVAAPSVFIFPPSDEQLKSGTASVVCLLNNFYPREAKVQWKVDNALQSGNSQESVTEQDSKDSTYSLSSTLTLSKADYEKHKVYACEVTHQGLSSPVTKSFNRGEC	2.83 nM
H0610-G1dh/none-Hi-Kn010G3/L0175-k0 (antibody, human IgG1, kappa, single-arm (one Fab)) heavy: not shown EPKSSDKTHTCPPCPAPELLGGPSVFLFPPKPKDTLMISRTPEVTCVVVDVSHEDPEVKFNWYVDGVEVHNAKTKPREEQYNSTYRVVSVLTVLHQDWLNGKEYKCKVSNKALPAPIEKTISKAKGQPREPQVCTLPPSRDELTKNQVSLWCLVKGFYPSDIAVEWESNGQPENNYKTTPPVLDSDGSFFLYSKLTVDKSRWQQGNVFSCSVMHEALHNRYTQKSLSLSP light: DIVMTQSPLSLPVTPGEPASISCRSSQSLVHSNRNTYLHWYQQKPGQAPRLLIYKVSNRFSGVPDRFSGSGSGTDFTLKISRVEAEDVGVYYCGQGTQHPYTFGQGTKLEIKRTVAAPSVFIFPPSDEQLKSGTASVVCLLNNFYPREAKVQWKVDNALQSGNSQESVTEQDSKDSTYSLSSTLTLSKADYEKHKVYACEVTHQGLSSPVTKSFNRGEC	3.84 nM
H0610-G1dh/none-Hi-Kn010G3/L0155-k0 (antibody, human IgG1, kappa, single-arm (one Fab)) heavy: not shown EPKSSDKTHTCPPCPAPELLGGPSVFLFPPKPKDTLMISRTPEVTCVVVDVSHEDPEVKFNWYVDGVEVHNAKTKPREEQYNSTYRVVSVLTVLHQDWLNGKEYKCKVSNKALPAPIEKTISKAKGQPREPQVCTLPPSRDELTKNQVSLWCLVKGFYPSDIAVEWESNGQPENNYKTTPPVLDSDGSFFLYSKLTVDKSRWQQGNVFSCSVMHEALHNRYTQKSLSLSP light: DIVMTQSPLSLPVTPGEPASISCRSSQSLVHSNRNTYLHWYQQKPGQAPRLLIYKVSNRFSGVPDRFSGSGSGTDFTLKISRVEAEDVGVYYCLQGTQVPYTFGQGTKLEIKRTVAAPSVFIFPPSDEQLKSGTASVVCLLNNFYPREAKVQWKVDNALQSGNSQESVTEQDSKDSTYSLSSTLTLSKADYEKHKVYACEVTHQGLSSPVTKSFNRGEC	1.28 nM
H0610-G1dh/none-Hi-Kn010G3/L0161-k0 (antibody, human IgG1, kappa, single-arm (one Fab)) heavy: not shown EPKSSDKTHTCPPCPAPELLGGPSVFLFPPKPKDTLMISRTPEVTCVVVDVSHEDPEVKFNWYVDGVEVHNAKTKPREEQYNSTYRVVSVLTVLHQDWLNGKEYKCKVSNKALPAPIEKTISKAKGQPREPQVCTLPPSRDELTKNQVSLWCLVKGFYPSDIAVEWESNGQPENNYKTTPPVLDSDGSFFLYSKLTVDKSRWQQGNVFSCSVMHEALHNRYTQKSLSLSP light: DIVMTQSPLSLPVTPGEPASISCRSSQSLVHSNRNTYLHWYQQKPGQAPRLLIYKVSNRFSGVPDRFSGSGSGTDFTLKISRVEAEDVGVYYCVQGTQVPYTFGQGTKLEIKRTVAAPSVFIFPPSDEQLKSGTASVVCLLNNFYPREAKVQWKVDNALQSGNSQESVTEQDSKDSTYSLSSTLTLSKADYEKHKVYACEVTHQGLSSPVTKSFNRGEC	0.973 nM
H0610-G1dh/none-Hi-Kn010G3/L0154-k0 (antibody, human IgG1, kappa, single-arm (one Fab)) heavy: not shown EPKSSDKTHTCPPCPAPELLGGPSVFLFPPKPKDTLMISRTPEVTCVVVDVSHEDPEVKFNWYVDGVEVHNAKTKPREEQYNSTYRVVSVLTVLHQDWLNGKEYKCKVSNKALPAPIEKTISKAKGQPREPQVCTLPPSRDELTKNQVSLWCLVKGFYPSDIAVEWESNGQPENNYKTTPPVLDSDGSFFLYSKLTVDKSRWQQGNVFSCSVMHEALHNRYTQKSLSLSP light: DIVMTQSPLSLPVTPGEPASISCRSSQSLVHSNRNTYLHWYQQKPGQAPRLLIYKVSNRFSGVPDRFSGSGSGTDFTLKISRVEAEDVGVYYCIQGTQVPYTFGQGTKLEIKRTVAAPSVFIFPPSDEQLKSGTASVVCLLNNFYPREAKVQWKVDNALQSGNSQESVTEQDSKDSTYSLSSTLTLSKADYEKHKVYACEVTHQGLSSPVTKSFNRGEC	1.01 nM
H0610-G1dh/none-Hi-Kn010G3/L0181-k0 (antibody, human IgG1, kappa, single-arm (one Fab)) heavy: not shown EPKSSDKTHTCPPCPAPELLGGPSVFLFPPKPKDTLMISRTPEVTCVVVDVSHEDPEVKFNWYVDGVEVHNAKTKPREEQYNSTYRVVSVLTVLHQDWLNGKEYKCKVSNKALPAPIEKTISKAKGQPREPQVCTLPPSRDELTKNQVSLWCLVKGFYPSDIAVEWESNGQPENNYKTTPPVLDSDGSFFLYSKLTVDKSRWQQGNVFSCSVMHEALHNRYTQKSLSLSP light: DIVMTQSPLSLPVTPGEPASISCRSSQSLVHSNRNTYLHWYQQKPGQAPRLLIYKVSNRFSGVPDRFSGSGSGTDFTLKISRVEAEDVGVYYCGQGTQPPYTFGQGTKLEIKRTVAAPSVFIFPPSDEQLKSGTASVVCLLNNFYPREAKVQWKVDNALQSGNSQESVTEQDSKDSTYSLSSTLTLSKADYEKHKVYACEVTHQGLSSPVTKSFNRGEC	3.51 nM
